Our source for the Kd values is paper PMC4167974.

This assay addresses fluorescein-labeled BalhA1 leader peptide (Bacillus sp. Al Hakam). As to the kind of experiment: fluorescence polarisation.

Take MBP-BalhC (natural protein): the dissociation constant Kd was determined as 11 µM.

As usually defined, the Kd is the constant that tells how readily two partners part at equilibrium. Lower therefore signals higher affinity.
